What all share (experiment): cell-based or functional assay
One data set deals with T1, MGYPDa23 (unidentified).
T1 chain: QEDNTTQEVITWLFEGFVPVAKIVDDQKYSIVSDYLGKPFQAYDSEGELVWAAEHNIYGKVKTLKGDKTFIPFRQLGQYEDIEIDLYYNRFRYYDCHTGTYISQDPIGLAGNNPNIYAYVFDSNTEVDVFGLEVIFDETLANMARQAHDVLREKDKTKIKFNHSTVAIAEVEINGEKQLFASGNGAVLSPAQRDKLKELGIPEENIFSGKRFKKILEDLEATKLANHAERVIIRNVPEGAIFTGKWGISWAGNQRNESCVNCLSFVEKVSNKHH

A further data set addresses T2, RaDa01 (Ruminococcus sp.).
T2 chain: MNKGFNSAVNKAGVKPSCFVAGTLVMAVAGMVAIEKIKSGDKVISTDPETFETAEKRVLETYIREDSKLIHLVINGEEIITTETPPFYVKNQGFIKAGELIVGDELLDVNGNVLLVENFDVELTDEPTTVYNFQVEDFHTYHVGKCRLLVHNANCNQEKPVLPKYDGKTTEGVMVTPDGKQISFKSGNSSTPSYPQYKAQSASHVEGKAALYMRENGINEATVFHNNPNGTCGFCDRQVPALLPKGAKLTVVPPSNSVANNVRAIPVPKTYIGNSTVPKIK

The next data set addresses T3, d38_MGYPDa829 (unidentified).
T3 chain: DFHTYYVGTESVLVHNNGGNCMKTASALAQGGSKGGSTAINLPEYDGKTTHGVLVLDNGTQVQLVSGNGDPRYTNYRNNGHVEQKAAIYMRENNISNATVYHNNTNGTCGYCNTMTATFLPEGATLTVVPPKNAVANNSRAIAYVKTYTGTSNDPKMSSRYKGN

A further data set concerns the target T4, LbsDa01 (Simiaoa sunii).
T4 chain: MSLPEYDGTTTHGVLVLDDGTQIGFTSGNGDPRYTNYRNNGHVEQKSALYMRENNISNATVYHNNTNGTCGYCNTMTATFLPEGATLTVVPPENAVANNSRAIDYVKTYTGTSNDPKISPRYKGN

In a further data set the target is T5, AvDa02 (Actinomyces viscosus).
T5 chain: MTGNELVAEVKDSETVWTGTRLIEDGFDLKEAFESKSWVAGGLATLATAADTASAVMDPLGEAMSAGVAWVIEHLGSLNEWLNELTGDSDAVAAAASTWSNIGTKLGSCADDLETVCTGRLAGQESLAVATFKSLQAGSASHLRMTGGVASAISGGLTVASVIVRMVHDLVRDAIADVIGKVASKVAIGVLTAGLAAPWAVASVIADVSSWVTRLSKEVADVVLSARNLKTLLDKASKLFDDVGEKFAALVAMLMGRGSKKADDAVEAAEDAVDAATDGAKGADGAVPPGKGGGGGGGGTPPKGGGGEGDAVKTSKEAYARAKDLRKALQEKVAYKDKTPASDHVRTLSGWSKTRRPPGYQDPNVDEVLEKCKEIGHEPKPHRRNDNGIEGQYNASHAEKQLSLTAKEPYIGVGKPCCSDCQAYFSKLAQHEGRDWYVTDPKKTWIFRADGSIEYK

The target in a further data set is T6, CrDa01 (Clostridium roseum).
T6 chain: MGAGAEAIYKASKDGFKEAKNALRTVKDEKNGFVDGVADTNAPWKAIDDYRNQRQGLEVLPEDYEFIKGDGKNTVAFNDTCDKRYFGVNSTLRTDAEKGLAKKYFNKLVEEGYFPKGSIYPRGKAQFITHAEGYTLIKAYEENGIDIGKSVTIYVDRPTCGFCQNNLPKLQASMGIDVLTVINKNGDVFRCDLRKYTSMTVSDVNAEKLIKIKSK

The next data set addresses MGYPDa01 (unidentified).
For another data set, the target named is T7, MGYPDa20 (unidentified).
T7 chain: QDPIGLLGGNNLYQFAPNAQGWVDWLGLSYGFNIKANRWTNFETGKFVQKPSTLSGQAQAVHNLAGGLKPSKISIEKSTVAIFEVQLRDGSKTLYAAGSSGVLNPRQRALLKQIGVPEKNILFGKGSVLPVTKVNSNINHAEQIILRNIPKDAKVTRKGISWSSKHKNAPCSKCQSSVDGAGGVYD

MGYPDa01 (unidentified), sequence (chain, as listed by the source): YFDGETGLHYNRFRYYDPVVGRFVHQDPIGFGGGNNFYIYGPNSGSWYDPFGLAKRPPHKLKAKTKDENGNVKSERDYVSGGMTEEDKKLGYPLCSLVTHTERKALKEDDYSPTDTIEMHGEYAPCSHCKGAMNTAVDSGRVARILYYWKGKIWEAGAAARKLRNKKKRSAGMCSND

B1: 40 bp 5caC oligo (dsDNA)
DNA 1: AAATTTAATTATAAAACGATCGACGACGAAATAATAAAAA
DNA 2: TTTTTATTATTTCGTCGTCGATCGTTTTATAATTAAATTT
modifications: 5caC at all four C of the listed strand sites
As to B1, the activity stood at 0.02 fraction deaminated with MGYPDa23, 0.47 fraction deaminated with RaDa01, 0.1 fraction deaminated with d38_MGYPDa829 and 0.1 fraction deaminated with LbsDa01.

B2: 40 bp 5fC oligo (dsDNA)
DNA 1: AAATTTAATTATAAAACGATCGACGACGAAATAATAAAAA
DNA 2: TTTTTATTATTTCGTCGTCGATCGTTTTATAATTAAATTT
modifications: 5fC at all four C of the listed strand sites
On to B2, for which the activity is 0.08 fraction deaminated in the data set with AvDa02; 0.23 fraction deaminated with MGYPDa23; 0.09 fraction deaminated with CrDa01; 0.66 fraction deaminated with RaDa01; 0.12 fraction deaminated with d38_MGYPDa829; 0.14 fraction deaminated in the data set with LbsDa01.

B3: 40 bp control C oligo (dsDNA)
DNA 1: AAATTTAATTATAAAACGATCGACGACGAAATAATAAAAA
DNA 2: TTTTTATTATTTCGTCGTCGATCGTTTTATAATTAAATTT
As to B3, the activity with MGYPDa01 came out at 0.12 fraction deaminated; with MGYPDa20, 0.59 fraction deaminated; with MGYPDa23, 0.97 fraction deaminated; with CrDa01, 0.98 fraction deaminated; with RaDa01, 0.98 fraction deaminated; with d38_MGYPDa829, 0.88 fraction deaminated. Besides, the activity in the data set with LbsDa01 came out at 0.92 fraction deaminated.

(Values after US20230357838, “Double-Stranded DNA Deaminases and Uses Thereof” (New England Biolabs, Inc., published 2023).)
